This passage reports 5% antibody dBC and Ka results from patent publication US20160168209A1.

In experiment [1] the target is Gamma globulin (Nichiyaku), used as a human IgG (human). The experiment in a line: affinity chromatography, dynamic binding capacity at 5% breakthrough; ligand on HiTrap NHS agarose at 5.7 mg/mL-gel.
The target is the same in experiment [2]. The experiment in a line: affinity chromatography, dynamic binding capacity at 5% breakthrough; ligand on HiTrap NHS agarose at 8.8 mg/mL-gel.
For experiment [3] the target is unchanged. Kind of experiment: affinity chromatography, dynamic binding capacity at 5% breakthrough; ligand on HiTrap NHS agarose at 10.9 mg/mL-gel.
Experiment [4] has the same target. The experiment in a line: affinity chromatography, dynamic binding capacity at 5% breakthrough; ligand on cross-linked cellulose beads at 11.6 mg/mL-gel.
Experiment [5] concerns the target human immunoglobulin G preparation separated from human plasma (Gammagard, Baxter) (human). Kind of experiment: SPR (Biacore 3000), human IgG on CM5 chip, ligand flowed at 16-128 nM, 1:1 fit, 25 C. On the technique in general: In SPR one partner is held on a chip, and binding of the other changes the refractive index at the surface.
For experiment [6], the target named is Gamma globulin (Nichiyaku), used as a human IgG (human). Kind of experiment: affinity chromatography, dynamic binding capacity at 5% breakthrough; ligand on HiTrap NHS agarose at 4.8 mg/mL-gel.
For experiment [7] the target is unchanged. Kind of experiment: affinity chromatography, dynamic binding capacity at 5% breakthrough; ligand on HiTrap NHS agarose at 9.4 mg/mL-gel.
Experiment [8] addresses human immunoglobulin G preparation separated from human plasma (Gammagard, Baxter) (human). The experiment in a line: SPR (Biacore 3000), human IgG on CM5 chip, as in Example 3.
Experiment [9] deals with Gamma globulin (Nichiyaku), used as a human IgG (human). Kind of experiment: affinity chromatography, dynamic binding capacity at 5% breakthrough; ligand on HiTrap NHS agarose at 5.1 mg/mL-gel.
Experiment [10] shares this target. Kind of experiment: affinity chromatography, dynamic binding capacity at 5% breakthrough; ligand on HiTrap NHS agarose at 9.0 mg/mL-gel.
Experiment [11] shares this target. Kind of experiment: affinity chromatography, dynamic binding capacity at 5% breakthrough; ligand on HiTrap NHS agarose at 6.9 mg/mL-gel.
For experiment [12] the target is unchanged. The experiment in a line: affinity chromatography, dynamic binding capacity at 5% breakthrough; ligand on HiTrap NHS agarose at 13.5 mg/mL-gel.
Experiment [13] shares this target. The experiment in a line: affinity chromatography, dynamic binding capacity at 5% breakthrough; ligand on HiTrap NHS agarose at 14.1 mg/mL-gel.
Experiment [14] has the same target. Kind of experiment: affinity chromatography, dynamic binding capacity at 5% breakthrough; ligand on HiTrap NHS agarose at 6.8 mg/mL-gel.
Experiment [15] shares this target. Kind of experiment: affinity chromatography, dynamic binding capacity at 5% breakthrough; ligand on HiTrap NHS agarose at 6.4 mg/mL-gel.
Experiment [16] has the same target. The experiment in a line: affinity chromatography, dynamic binding capacity at 5% breakthrough; ligand on HiTrap NHS agarose at 9.5 mg/mL-gel.
The target is the same in experiment [17]. The experiment in a line: affinity chromatography, dynamic binding capacity at 5% breakthrough; ligand on cross-linked cellulose beads at 11.0 mg/mL-gel.
Experiment [18] shares this target. Kind of experiment: affinity chromatography, dynamic binding capacity at 5% breakthrough; ligand on HiTrap NHS agarose at 12.5 mg/mL-gel.

Take C-G29A/S33E.5d (designed binder): the 5% antibody dBC amounted to 38.3 mg/mL-gel in [1], 50.3 mg/mL-gel in experiment [2], 54.4 mg/mL-gel in [3] and 36.8 mg/mL-gel in [4]. The substance also returned a Ka in [5] of 6.3e+09 M⁻¹.

Consider “C-K04R/K07R/G29A/S33L/K35R/K42R/K49R/K50R.3d (designed binder)”, for which the figures for the 5% antibody dBC in experiment [6] and in experiment [7] were 56.5 mg/mL-gel and 73.4 mg/mL-gel, respectively. In addition, the Ka in experiment [5] was 2.1e+09 M⁻¹.

Substance “C-K04R/K07R/G29A/S33L/K35R/K42R/K49R/K50R/(K58R except for C-terminal).3d (designed binder)” had a Ka in [8] of 2.2e+09 M⁻¹. Further, the 5% antibody dBC in [9] was determined as 49.1 mg/mL-gel; in [10] it was 66.2 mg/mL-gel.

On to “C-K04R/K07R/G29A/S33R/K35R/K42R/K49Q/K50R(C-terminal K58R).4d (designed binder)”, for which the 5% antibody dBC in [11] is 41.8 mg/mL-gel; in experiment [12] it was 62.1 mg/mL-gel. In experiment [5], this substance yielded a Ka of 1.1e+09 M⁻¹.

As for “C-K04R/K07R/G29A/S33R/K35R/K42R/K49Q/K50R.4d (designed binder)”, the 5% antibody dBC in experiment [13] amounted to 62.1 mg/mL-gel; in experiment [14] it was 42.6 mg/mL-gel. In experiment [5], this substance came in with a Ka of 1e+09 M⁻¹.

Turning to “C-K04R/K07R/G29A/S33R/K35R/K42R/K49Q/K50R.5d (designed binder)”, the 5% antibody dBC is 45.8 mg/mL-gel in [15], 55.3 mg/mL-gel in experiment [16], 46.1 mg/mL-gel in [17] and 61.3 mg/mL-gel in experiment [18]. The substance also gave a Ka in experiment [5] of 1.5e+09 M⁻¹.
